Measured values: IntAct's records for PubMed 9428768

B1: Cell division control protein 24 (Saccharomyces cerevisiae), P11433 (parent)
chain: MAIQTRFASGTSLSDLKPKPSATSISIPMQNVMNKPVTEQDSLFHICANIRKRLEVLPQLKPFLQLAYQSSEVLSERQSLLLSQKQHQELLKSNGANRDSSDLAPTLRSSSISTATSLMSMEGISYTNSNPSATPNMEDTLLTFSMGILPITMDCDPVTQLSQLFQQGAPLCILFNSVKPQFKLPVIASDDLKVCKKSIYDFILGCKKHFAFNDEELFTISDVFANSTSQLVKVLEVVETLMNSSPTIFPSKSKTQQIMNAENQHRHQPQQSSKKHNEYVKIIKEFVATERKYVHDLEILDKYRQQLLDSNLITSEELYMLFPNLGDAIDFQRRFLISLEINALVEPSKQRIGALFMHSKHFFKLYEPWSIGQNAAIEFLSSTLHKMRVDESQRFIINNKLELQSFLYKPVQRLCRYPLLVKELLAESSDDNNTKELEAALDISKNIARSINENQRRTENHQVVKKLYGRVVNWKGYRISKFGELLYFDKVFISTTNSSSEPEREFEVYLFEKIIILFSEVVTKKSASSLILKKKSSTSASISASNITDNNGSPHHSYHKRHSNSSSSNNIHLSSSSAAAIIHSSTNSSDNNSNNSSSSSLFKLSANEPKLDLRGRIMIMNLNQIIPQNNRSLNITWESIKEQGNFLLKFKNEETRDNWSSCLQQLIHDLKNEQFKARHHSSTSTTSSTAKSSSMMSPTTTMNTPNHHNSRQTHDSMASFSSSHMKRVSDVLPKRRTTSSSFESEIKSISENFKNSIPESSILFRISYNNNSNNTSSSEIFTLLVEKVWNFDDLIMAINSKISNTHNNNISPITKIKYQDEDGDFVVLGSDEDWNVAKEMLAENNEKFLNIRLY
partner: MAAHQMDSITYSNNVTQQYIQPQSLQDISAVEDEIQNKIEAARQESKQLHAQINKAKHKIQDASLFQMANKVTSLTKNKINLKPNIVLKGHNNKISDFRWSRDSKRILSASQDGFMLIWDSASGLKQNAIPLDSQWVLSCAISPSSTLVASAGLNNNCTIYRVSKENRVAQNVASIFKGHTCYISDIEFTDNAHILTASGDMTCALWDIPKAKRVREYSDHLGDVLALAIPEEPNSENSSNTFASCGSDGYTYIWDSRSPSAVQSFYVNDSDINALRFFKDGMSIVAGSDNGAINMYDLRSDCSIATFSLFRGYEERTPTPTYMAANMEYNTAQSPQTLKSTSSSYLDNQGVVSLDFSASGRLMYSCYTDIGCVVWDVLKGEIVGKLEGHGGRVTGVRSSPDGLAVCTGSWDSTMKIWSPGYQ

Variants of: B1
Details: with gbb_yeast STE4, P18851

Q: With S189F as the variant, how does the “effect of a mutation on the interaction” value read?
A: disrupting interaction
